This assay addresses human amyloid β (Aβ) peptides secreted into the medium of Tg2576 neuron cultures (Aβ40, Aβ42 and their oligomers) (human) (UniProt P05067). In words: cell-based or functional assay.

Sequence of human amyloid β (Aβ) peptides secreted into the medium of Tg2576 neuron cultures (Aβ40, Aβ42 and their oligomers) (human) (P05067 672-713 limits assumed): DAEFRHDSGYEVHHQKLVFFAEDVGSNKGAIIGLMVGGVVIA

Substance “3D6 antibody, a high-titer monoclonal Aβ antibody” registered a [Ca2+]i of wild-type neurons treated with TgCM depleted with 3D6 (Indo-1) of 98 nM.

The record behind these values is US20130195866A1, “METHODS TO INHIBIT NEURODEGENERATION” (priority 2010, published 2013).
